Results on one molecule are retold here after article doi:10.1101/2025.11.27.690911.

This data set concerns the target thrombin (UniProt P00734;P00734 328-363;364-622). Kind of data set: SPR. A general note: Surface plasmon resonance follows binding to a sensor surface in real time, without labels.

B1: SuperCan (structured_DNA)
DNA: GAAGAATGAACAGAGTAGGTCAAAGTCAGTGGGGAGTACACCACTGACGACGAGTTGAATGAACGTAGGAAGTAAGTATACGTTCATTCTTAGCTTCCAAAGCAGAGTGCGAGGCTTTGGAGCGTAACTTGCGTTATCGTCGCAAGAAAGCAAACGGTGATGAGACAATC
For B1, the binding result is given as “binds”.
